Measurements: the nanobody polyreactivity screen of Harvey et al. (2022)

Assay: yeast display, Sf9 membrane polyspecificity reagent, FACS + sequencing; frameworks hold sequencing errors
Outline: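 In a synthetic yeast display library (Saccharomyces cerevisiae BJ5465), nanobody expression was induced with galactose for 36–48 hours. FACS gates were set low and high (top ~1%) using anti-HA fluorescence for expression and streptavidin fluorescence for binding of the Sf9 membrane reagent. Each polyreactivity label is drawn from the gate of origin.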

QVQLVESGGGLVQAGGSLRLSCAASGYIFGDYVMGWYRQAPGKERELVAAISSSGDTNYADSVKGRFTISRDNAKNTVYLQMNSLKPEDTAVYYCAAVDWIGRVHGKPWGGDYWGQGTQVTVSS
polyreactivity (PSR sort gate): low polyreactivity

QVQLVDSGGGLVQAGGSLRLSCAASGSIFFENDMGCYRQAPGKEREFVAAISLSSTSTYYADSVKGRFTISRDNAKNTVYLQMNSLKPEDTAVYYCAADAIFGWPTFDFWGQGTQVTVSS
polyreactivity (PSR sort gate): low polyreactivity

QLQLVESGGGLVQAGGSLRLSCAASGSILSRYAMGWYRQAPGKEMELVAGITRGGSTNYADSVKGRFTISRDNAKNTVYLHMNSLKPEDTAVYYGAKASRRFLTLGYDYWGQGTQVTVSS
polyreactivity (PSR sort gate): high polyreactivity

QVQLVESGGGLVQAGGSLRLSCAASGSIFVYYAMGWYRQAPGKERELVAAINFRGGNTYYADSVKGRFTISRDNAKNTVYLQMNSLKPEDTAVYYCAADYRWKWIGGARYDYWGQGTQVTVSS
polyreactivity (PSR sort gate): low polyreactivity

QLQLVESGGGLVQAGGSLRLSCAASGRIVKYDMGWYRQAPGKERELVAAISGSGGTTNYADSVKGRFTISRDNAKNTVYLKLNSLKPEETAVYYCAASRPRPPSSRRMDYWGQGTQVTVSS
polyreactivity (PSR sort gate): high polyreactivity

QVQLVESGGGLVQAGGSLRLICAASGIIFRSYAMGWYRQAPGKERELVAGISLSGGSTYYADSVKGRFTISRDNAKNTVYLQMNSLKPEDTAVYYCAARRRYKSGYWGQGTQVTVSS
polyreactivity (PSR sort gate): high polyreactivity

QVQLVESGGGLVQAGGSLRLSCAASGSIFAFYAMGLYRQAPGKERELVAAITASGGRTYYADSVKGRFTISRDIAKNTVYLQMNSLKPEDTAVYYCAAERQTIYIGLYGYPGWSQYNYWGQGTQVTVSS
polyreactivity (PSR sort gate): low polyreactivity

QVQLVESGGGLVQAGGSLRLSCAASGLTFQKNVMGWYRQAPGKERELVAAIRASSSSTYYADSVKGRFTISRDNAKNTVYLQMNSLKPEDTAVYYCAAPRLIKYDYWGQGTQVTVSS
polyreactivity (PSR sort gate): high polyreactivity

QGQLVESGGGLVQAGGSLRLSCAASGFIYGFYGMGWYRQAPGKEREFVAAIDFIDGDTYYADSVKGRFTISRDNAKNTVYLQMNSLKPEDTAVYYCAAVGSFWQFDYWGQGTQVTVSS
polyreactivity (PSR sort gate): low polyreactivity

QVQLVESGGGLVQAGGSLSLSCAASGRNFAYYAMGWYRQAPGKERELVAGISQRGSRTYYADSVKGRFTISRDNAKNTVYLQMNSLKPEDTAVYYCAARDRRSVTMDYWGQGTQVTVSS
polyreactivity (PSR sort gate): high polyreactivity

QVQLVESGRGLVQAGGSLRLSCAASGITFTAYAMGWYRQAPGLERQLVATINSTGITNYADSLKGRFTISRDNAKNTVYLQMNSLKPEDTAVYYCAADLLYISSYDGMDYWGQGTQVTVSS
polyreactivity (PSR sort gate): low polyreactivity

QVQLVESGGGLVQAGGSLRLSCAASGSTFQYNVMGWYRQAPGKERELVAAISRSGTRTSYADSVKGRFTISRDYAKNTVYLQMNTLKPEDTAVYYCAAVVYHRYYSGYYYWGQGTQVTVST
polyreactivity (PSR sort gate): high polyreactivity

QVQLVESGGGLVQAGGSPRLSCAASGRTFVFKAMGWYRQAPAKERELVAAITDTTGSTYYADSVKGRFTISRDNAKNTVYLQMNSLKPEDTAVYYCNARVYRPFYYWGQGTQVTVSS
polyreactivity (PSR sort gate): low polyreactivity

QVQLVESGGGLVQAGGSLRLSCAASGFTFEYYAMGWFRQAPGKERELVATITSGGSTYYADSVKGRFTISRDNAKNTVYLQMNSLKPEDTAVYDCNTSSPWIEDYWGQGTQVTVSS
polyreactivity (PSR sort gate): low polyreactivity

QVQLVESGGGLVQAGGSLRLSCAASGSTFFTNAMGWYRQAPGKERELVATITWSGGSTYADSVKGRFTISRDNAKNTVYLQMNSLKPEDTAVYYCAAESSSYWGDLGGALWLYDYWGQGTQVTVSS
polyreactivity (PSR sort gate): low polyreactivity

QVQLVESGGGLVQAGGSLRLSCAASGSNFDPIVMGGYRKAPGKERELVAAIDVSGGSTYYADSVKGRFTISRDNAKNTVYLQMNSLKPEDTAVYYCAADAEGSASKYDYWGQGTQVTVSS
polyreactivity (PSR sort gate): low polyreactivity

QVHLVESGGGLVQAGGSLRLSCAASGYTFGHYAMGWYRQAPGKERELVAVITSGGSTNYADSVKGRFTISRDNAKNTVYLQMNSLKPEDTAVYYCAADLYFYYVWIRDYWGQGTQVTVSS
polyreactivity (PSR sort gate): low polyreactivity

QVQLVESGGGLVQAGGSLRLSCAASGLTFYYYAMGWYRQAPGKERELVAAMSIGGSTDYADSVKGRFTISRDNAKNTVYLQMNSLKPEDTAVYYCNVDDNSEYDYWGQGTQVTVSS
polyreactivity (PSR sort gate): low polyreactivity

QVQLVESGGGLVQSGGSLRLSCAASGLIFPYYAMGWYRQAPGKERELVAAITGNGGRTYYADSVKGRFTISRDNAKYNVYLQMNSLKPEDTAVYYCAAAGKASSDYYVLGGYWGQGTQVTVSS
polyreactivity (PSR sort gate): high polyreactivity

QVHLVESGGGLVQAGGSLRLSCAASGRNFYANAMGWYRQAPGKERELVAAISSGGSTYYADSVKGRFTISRDNAKNTVYLQMKSLKPEDTAVYYCAVYTHKKVRPEYDYWGQGTQVTVSS
polyreactivity (PSR sort gate): low polyreactivity

QVQLVESGGGLVQAGGSLRLSCAASGGIFSPNAMGWYRQAPGKERELVAGITFSGGSTYYADSVKGRFTISRDNAKTTVYLQMNSLKPEDTAVYYCNARVPPQGWGPWKAFDYWGQGTQVTVSS
polyreactivity (PSR sort gate): low polyreactivity

QVQLVESGGGLVQAGGSLRLSCAASGFIFARYAMGWYIQAPGKERELVAAITRRGGSTYYADSVKGRFTISRDNAKNTVYLQMNSLKPEDTAVYYCAAVTSTSWGSVSYRYGVGYDYWGQGTQVTVSS
polyreactivity (PSR sort gate): high polyreactivity

QFQLVESGGGLVQAGGSLRLSCAASGRIFYKYVMGWYRQAPGKERELVAAINLSGGTTYYADSVKGRFTISRDNAKNTVYLQMNSLKPEDTAVYYCAADSFTLTHYYWGQGTQVTVSS
polyreactivity (PSR sort gate): low polyreactivity

QVQLVESGGGLVQAGGSLRLSCAASGRIFYFNAMGWYRPAPGKDRELVADISSGGRTNYADSVKGRFTISRDNAKNTVYLQMNSLKPEDTAVYYCNAEAYTSSGGYRGYDFDYWGQGTQVTVSS
polyreactivity (PSR sort gate): low polyreactivity

QVLLVESGGGLVQAGGSLRLSCAASGSTFFFNAMGSSRQAPGKEWELVATISRDGSTNYADSVKGRFTISRDNAKNTVYLQMNSLKPEDTAVYYCAAGWGWPYHQYDYWGQGTQVTVSS
polyreactivity (PSR sort gate): low polyreactivity

QVQLVESGVGLVQAGGSLRLSCAASGGTFVTYAMGWFSQAPGKERELVAAISATDGRTYNADSVKGRFTISRDNAKNTVYLQMNSLKPADTAVYYCAAVGPYTQSRGKYSNLFYWGQGTQVTVSS
polyreactivity (PSR sort gate): high polyreactivity

QDQLVESGGGLVQAGGSLRLSCAASGGTFKFYAMGWYRQAPGKERELVAAITSGGSTSYADSVKGRFTISRDNAKNTVYLQMNSLKPEDTAVYYCNADFYQRYGVFSSRRYYYWGQGTQVTVSS
polyreactivity (PSR sort gate): high polyreactivity

QVQLVESGGGLVQAGGSLRLSCAASGSIFRYYAMGWSRQAPGKERELVAAISRRGSSTYYADSVKGRFTISRDNAKKTVYLQMNSLKPEDTAVYYCAAGDFKQYDYWGQGTQVTVSS
polyreactivity (PSR sort gate): high polyreactivity

QVQLVESGGGLVQAGGSLRLSCAASGSIFPSYARGWDRKAPGKERELVAAISSSGGSTYYADSVKGRFTISRDNAKNTVYLQMNSLKPEDTAVYYCATRYRRWSTVVQDDYWGQGTQVTVSS
polyreactivity (PSR sort gate): low polyreactivity

QVQLVESGGGLVQAGGSLRISCAASGSTLRSNAMGWYRQAPGKERELVASISSGGSTSYADSVKGRFPISRDNAKNTVYFQMNSLKPEDTAVLYCAADGTLTLYRYILDYWGQGTQVTVSS
polyreactivity (PSR sort gate): low polyreactivity

QDQLVESGGGLVQAGGSLRLSCAASGRTFIRNAMGWYRQAPGKERELVAAISRSGGRTYYADSVKGRFTISRDNAKNTVYLQMNSLKPEDTAVYYCAAGSYQRYAFDYWGQGTQVTVSS
polyreactivity (PSR sort gate): high polyreactivity

QVQLVESGGGLVQAGGSLRLSCAASGSTFWPYAMGWYRQAPGKERELVATIRWSGGSTSYADSVKGRFTISRDNAKNTVYVQMNSLKPEDTAVYYCAARDFHYYRFKTYGYWGQGTQVTVSS
polyreactivity (PSR sort gate): high polyreactivity

QVQLVESGGGLVQAGGSHRLSCAASGRIFSDYAMGWYRQAPGKERELVAAITRDGSTNYADSVKGLFTISRDNAKNTVYLQLNSLKPEDTAVYYCAAEGRRGGKDYDYWGQGTQVTVSS
polyreactivity (PSR sort gate): high polyreactivity

QVQLVESGGGLVQAGGSLRLTCAASGFTIYLYTMGWYRQAPGKERELVATISWSGGSTYYADSVKGRFTISRDNAKNTVYLHMNSLKPEDTAVYYCAKAYNGRYTWRYDYWGQGTQVTVSS
polyreactivity (PSR sort gate): high polyreactivity

QVQLVESGGGLVQAGGSLRLSCAASGRTFPVYAMGWYRQAPGKERELVAAITRSDDSTYYADSVKGRFTISRDNAKNTVYLQMNSLKPEDTAVYYCARRSRESYEYDYWGQGTQVTVSS
polyreactivity (PSR sort gate): low polyreactivity

QVQLVESGGGLVQAGGSLLISCAASGSIFTCYAMGWYRQAPGKERELVAASTRGGSTYADSEKGRFTISRDNAKNTVYLQRKSLIPDVTGVYYCNAVYGVYDFKYWGQGTQVSVSS
polyreactivity (PSR sort gate): low polyreactivity

QVQLVESGGGLVQAGGSLRLSCAASGFIFEWYTMGWYRQAPGKERELVARISSDGSTTYADSVKGRFTISRDNAKNTVYLQMNSLNPEDTAVYYCAADVTYPGLIYIYDYWGQGTQVTVSS
polyreactivity (PSR sort gate): low polyreactivity

QVQLVESGGGLVQAGGSLRLTCAASGLTFGFNAMGWYRQAPGKERELVAAISSRGGSTYYADSVKGRFTISRDNAKNTVYLQMNSLKPEDTAVYYCAVRYYSPYGYWGQGTQVTVSS
polyreactivity (PSR sort gate): low polyreactivity

QVQLVESGGGLVQAGGSLRLSCAASGLIFRAYAMGWYRQAPGKETELVAAITWNGGSTNYADSVKGRFTISRDNAKNTVYLQMHSLKPEDTAVYYCAAGSSRVFRKAGITRPSGLYYYWGQGTQVTVSS
polyreactivity (PSR sort gate): high polyreactivity

QVQLVESGGGLVQAGGSLSLICAASGSTLATYTMGGYRQAPGKERELVAAISFGGSTYYADSVKGRYTISRDNAKNTVYLQMISLKPEDTAVYYCAVYGDSYWGAYYYSDGYWGQGTQVTVSS
polyreactivity (PSR sort gate): low polyreactivity

QVQLVESGGGLVQAGGSLRLSCAASGSSFDPYAMGWYRQAPGKERELVATITYSGGRTYYADSVKGRFTISRDNAKNTVYLQMNSLKPEDTAVYYCAADWDPGYYVQYGYDYWGQGTQVTVSS
polyreactivity (PSR sort gate): low polyreactivity

QVQLVESGGGLVQAGGSLRLSCAASGTIFFPNAMGWYREAPGKERELVAAISWSGDSTYADSVKGRFTISRDNAKNTVYLQMNSLKPQDTAVYYCAAVYLWWSYEFDYWGQGTQVTVSS
polyreactivity (PSR sort gate): low polyreactivity

QVQLVESGGCLVQAGGSLRLSCAASGFTFYRSVMGWYRQAPGKERELVAAITSDGGSTYYAVSVKGRFTISRDNGKNTVYLQMNSLKPEDTAVYYCSADASTWYTEEYWGQGNQVTVSS
polyreactivity (PSR sort gate): low polyreactivity
